Assay results reported in CN112500487A (HUADAO SHANGHAI BIOMEDICAL CO LTD, dated 2021).

Target: T1, Human IL-3Rα/CD123蛋白 (human, UniProt P26951 19-305, limits assumed)
T1 construct: Soluble antigen in the mobile phase of the SPR run
T1 sequence (looked up): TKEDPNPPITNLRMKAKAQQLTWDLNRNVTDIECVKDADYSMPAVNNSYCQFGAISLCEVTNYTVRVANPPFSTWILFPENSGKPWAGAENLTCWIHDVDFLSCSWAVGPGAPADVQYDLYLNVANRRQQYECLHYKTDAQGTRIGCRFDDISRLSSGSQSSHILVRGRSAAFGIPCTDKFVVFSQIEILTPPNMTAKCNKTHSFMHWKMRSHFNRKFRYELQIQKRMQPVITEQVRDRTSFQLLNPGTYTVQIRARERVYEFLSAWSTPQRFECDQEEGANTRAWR
Assay: SPR (Biacore), antibody immobilised on chip, antigen in mobile phase

B1: CD123-89 VHH-mIgG2a Fc抗体 (anti-CD123 VHH CD123-89 with mouse Fc tag) (Fc fusion)
chain: EVQLVESGGDSVQTGGSLRLSCLASGYIGSGYCLAWFRQAPGKERKKVANIVIGVGRPYYADSVKGRFTISQDNAKNTLYLQMNSLKPEDTAMYYCAASKFGSWSCGDYNYWGQGTQVTVSS
notes: Expressed in 293E cells from C-4pCP.Stuffer VHH-mCg2a-FC and purified on MabSelect SuRe; also called 抗CD123 VHH抗体CD123-89; 重组CD123-89抗体; not shown: mouse IgG2a Fc tag from vector C-4pCP.Stuffer VHH-mCg2a-FC
Kd: 0.48 nM | koff: 0.000174 s⁻¹ | kon: 362000 M⁻¹ s⁻¹
